We go through one molecule from patent US20210171647A1 (WUXI BIOLOGICS SHANGHAI, published 2021).

Assay [1] has as its target T1, human OX40, full-length, on cells (human, UniProt P43489 29-277).
T1 construct: whole, on cells; also called hPro1; cell surface human OX40
T1 sequence (looked up): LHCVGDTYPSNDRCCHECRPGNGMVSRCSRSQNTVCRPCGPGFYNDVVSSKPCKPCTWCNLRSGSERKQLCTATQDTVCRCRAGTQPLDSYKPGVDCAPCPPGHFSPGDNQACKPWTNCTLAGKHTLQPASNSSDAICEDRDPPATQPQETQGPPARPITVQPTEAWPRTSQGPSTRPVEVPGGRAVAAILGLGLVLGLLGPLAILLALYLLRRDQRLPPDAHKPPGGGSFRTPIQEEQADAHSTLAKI
Description: FACS, transfected 293F cells, antibody 1 ug/mL. Background: Flow cytometry measures light scatter and fluorescence of single cells or particles in a stream.
Description: (§1) Binding of antibodies to chimeric OX40 variants was analyzed by flow cytometry. […] Cells were analyzed using flow cytometer.

Assay [2] deals with T2, mouse OX40 (mPro1) on transfected 293F cells (mouse, UniProt P47741 20-272).
T2 construct: whole, on cells
T2 sequence (looked up): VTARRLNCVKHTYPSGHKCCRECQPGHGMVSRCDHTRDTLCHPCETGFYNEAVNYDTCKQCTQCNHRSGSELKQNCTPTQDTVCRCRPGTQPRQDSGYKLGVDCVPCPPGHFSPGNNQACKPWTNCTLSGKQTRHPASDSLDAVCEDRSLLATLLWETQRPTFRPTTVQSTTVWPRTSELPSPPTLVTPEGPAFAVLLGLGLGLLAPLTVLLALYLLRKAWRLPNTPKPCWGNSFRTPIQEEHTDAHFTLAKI
Description: FACS, transfected 293F cells, antibody 1 ug/mL.
Description: as §1

For assay [3], the target named is T3, human OX40 extracellular domain (ECD) protein (human, UniProt P43489 29-214).
T3 construct: extracellular domain; also called human OX40 ECD; human OX40 protein; not shown: human Fc or His tag
T3 sequence (looked up): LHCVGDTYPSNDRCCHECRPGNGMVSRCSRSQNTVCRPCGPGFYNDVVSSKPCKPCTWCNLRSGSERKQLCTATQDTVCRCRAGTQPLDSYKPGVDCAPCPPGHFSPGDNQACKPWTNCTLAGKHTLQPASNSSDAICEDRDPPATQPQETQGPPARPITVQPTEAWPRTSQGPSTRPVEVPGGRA
The experiment in a line: SPR, Biacore T200, antibody captured, OX40 as analyte.

Assay [4] addresses T1, human OX40, full-length, on cells. Description: flow cytometry on human OX40 transfected CHO-K1 cells.
Description: (§2) CHO-K 1 cells expressing human OX40 were transferred in to 96-well U-bottom plates (Corning) at a density of 5×10⁴ cells/mL. Testing antibodies were 1:2 serially diluted in wash buffer (1×PBS/1% BSA) and incubated with cells at 4° C. for 1 h. The secondary antibody goat anti-human IgG Fc FITC (3.2 moles FITC per mole IgG, Jackson Immunoresearch Lab) was added and incubated with cells at 4° C. in the dark for half an hour. The cells were then washed once, resuspended in 1×PBS/1% BSA and analyzed by flow cytometry (BD). Fluorescence intensity was converted to bound molecules/cell based on the quantitative beads Quantum™ MESF Kits (Bangs Laboratories, Inc.). The KD value of each antibody was calculated using Graphpad Prism5.
Assay [5] shares this target. Description: flow cytometry, CHO-K1 cells expressing human OX40, MESF beads.
Description: as §2
A further assay deals with T4, human CD40 ECD (human, UniProt P25942 21-193).
T4 construct: extracellular domain
T4 sequence (P25942 21-193): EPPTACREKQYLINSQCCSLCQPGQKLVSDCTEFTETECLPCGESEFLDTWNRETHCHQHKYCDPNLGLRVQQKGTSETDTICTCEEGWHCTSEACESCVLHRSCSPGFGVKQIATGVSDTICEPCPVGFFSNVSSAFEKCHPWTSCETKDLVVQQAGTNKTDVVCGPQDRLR
Description: ELISA on coated ECD, one antibody concentration (not given). A general note: An ELISA detects its analyte on a solid surface through an enzyme-linked reagent.

A further assay deals with T5, human 4-1BB (CD137) ECD (human, UniProt Q07011 24-186).
T5 construct: extracellular domain
T5 sequence (Q07011 24-186): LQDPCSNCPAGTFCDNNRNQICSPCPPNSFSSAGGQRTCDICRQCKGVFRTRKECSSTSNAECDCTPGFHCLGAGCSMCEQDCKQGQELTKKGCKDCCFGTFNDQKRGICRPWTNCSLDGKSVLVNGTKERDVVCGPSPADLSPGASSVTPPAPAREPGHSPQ
Described as above.

The next assay has as its target T6, human CD271 ECD (human, UniProt P08138 29-250).
T6 construct: extracellular domain
T6 sequence (looked up): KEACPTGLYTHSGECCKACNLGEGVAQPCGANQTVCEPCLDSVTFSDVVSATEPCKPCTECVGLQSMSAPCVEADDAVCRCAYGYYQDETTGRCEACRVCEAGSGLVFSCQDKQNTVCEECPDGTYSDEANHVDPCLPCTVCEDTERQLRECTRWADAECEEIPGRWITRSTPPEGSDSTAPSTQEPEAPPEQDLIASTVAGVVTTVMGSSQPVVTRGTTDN
Described as above.

For another assay, the target named is T7, human OX40-ECD.His D34A (human, UniProt P43489 29-214).
T7 construct: extracellular domain; not shown: C-terminal His-tag
T7 sequence (looked up): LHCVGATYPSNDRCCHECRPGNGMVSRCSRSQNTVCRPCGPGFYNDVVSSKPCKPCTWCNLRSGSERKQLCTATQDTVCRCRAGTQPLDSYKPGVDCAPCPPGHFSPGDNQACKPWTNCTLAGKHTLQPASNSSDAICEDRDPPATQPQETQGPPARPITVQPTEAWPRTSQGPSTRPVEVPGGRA
Description: ELISA, antibody coated, OX40-ECD.His mutant supernatant; relative to silent alanine substitutions.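 Also: captured OX40 mutant protein detected with HRP-labelled anti-His antibody, absorbance read-out, scaled to the mean signal of control mutants.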

The target of the next assay is T8, human OX40-ECD.His S59A (human, UniProt P43489 29-214).
T8 construct: extracellular domain; not shown: C-terminal His-tag
T8 sequence (looked up): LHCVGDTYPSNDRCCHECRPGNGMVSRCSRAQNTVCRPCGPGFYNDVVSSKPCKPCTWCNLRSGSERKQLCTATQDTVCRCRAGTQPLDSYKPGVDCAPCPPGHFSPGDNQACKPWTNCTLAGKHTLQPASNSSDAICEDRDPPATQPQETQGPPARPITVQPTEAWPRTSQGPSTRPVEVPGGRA
Described as above.

A further assay deals with T9, human OX40-ECD.His N88A (human, UniProt P43489 29-214).
T9 construct: extracellular domain; not shown: C-terminal His-tag
T9 sequence (looked up): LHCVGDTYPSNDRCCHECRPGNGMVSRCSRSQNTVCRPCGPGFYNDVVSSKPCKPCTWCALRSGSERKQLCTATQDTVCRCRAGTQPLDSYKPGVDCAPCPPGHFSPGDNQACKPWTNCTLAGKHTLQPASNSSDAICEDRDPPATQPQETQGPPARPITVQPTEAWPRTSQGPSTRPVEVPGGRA
The description is as above.

A further assay addresses T10, human OX40-ECD.His P127A (human, UniProt P43489 29-214).
T10 construct: extracellular domain; not shown: C-terminal His-tag
T10 sequence (looked up): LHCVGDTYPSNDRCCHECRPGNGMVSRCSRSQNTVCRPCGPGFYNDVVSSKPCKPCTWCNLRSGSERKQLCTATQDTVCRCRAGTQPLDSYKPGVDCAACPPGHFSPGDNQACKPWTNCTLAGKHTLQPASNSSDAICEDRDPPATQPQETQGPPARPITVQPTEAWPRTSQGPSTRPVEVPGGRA
The assay is described as above.

Assay [6] concerns the target T3, human OX40 extracellular domain (ECD) …. Description: competition ELISA: human OX40 ECD coated, antibody titrated in a mix with a constant concentration of OX40L, bound OX40L detected at OD450.
Description: Briefly, plates (Nunc) were coated with human OX40 ECD at 1 μg/mL overnight at 4° C. […] After washing, TMB substrate was added and the interaction was stopped by 2M HCl.

Description for human 4-1BB (CD137) ECD: (§3) Human OX40, CD40, 4-1BB (CD137) and CD271 ECD were coated on plates (Nunc) overnight at 4° C. After blocking and washing, testing antibodies were diluted in blocking buffer and added to the plates and incubated at room temperature for 1 h. The plates were then washed and subsequently incubated with secondary antibody goat anti-human IgG Fc-HRP (Bethyl) for 1 h. After washing, TMB substrate was added and the interaction was stopped by 2M HCl.
Description for human CD271 ECD: as §3
Description for human CD40 ECD: as §3
Description for human OX40-ECD.His D34A: (§4) After interacting with the supernatant that contains quantified OX40 mutants or human OX40-ECD.His protein, HRP conjugated anti-His antibody (1:5000, GenScript-A00612, CHN) was added as detection antibody. Absorbance was normalized according to the average of control mutants.
Description for human OX40-ECD.His N88A: as §4
Description for human OX40-ECD.His P127A: as §4
Description for human OX40-ECD.His S59A: as §4

B1: 1.134.9-u1-IgG1L (antibody, V domains shown)
VH: QVQLQESGPGLVKPSGTLSLTCAVSGGSISSYNWWSWVRQPPGKGLEWIGEIYHGGNTNYNPSLKSRVTMSVDNSKNQFSLKLSSVTAADTAVYYCARAPGDWGGSPYFDFWGQGTLVTVSS
VL: SSELTQDPAVSVALGQTVRITCQGDNLRTYYASWYQQKPGQAPILLIYGRNKRPSGIPDRFSGSSSGNTASLTITGAQAEDEAAYYCNSRDSSGNPVVFGGGTKLTVL
notes: fully human IgG1, lambda
In general, Kd refers to the equilibrium constant for the complex coming apart. Higher therefore signals weaker binding. The koff is the rate constant with which the complex falls apart. Higher therefore signals a short-lived complex. A word on the kon: it is a measure of how fast the partners come together. Read a low kon as slow association. For orientation: EC50 (read off the curve) means the concentration giving half of the maximal effect. For the molecule B1, the MFI in assay [1] was 9160; in assay [2], 44.4. The “PE + %” value came to 85.2% in assay [1] and 0.937% in assay [2]. The results for the dissociation constant Kd in [3] and in assay [5] were 0.179 nM and 0.53 nM, respectively. In assay [3], this molecule gave a koff of 3.7e-05 s⁻¹. Further, the kon in [3] is 207000 M⁻¹ s⁻¹. Further, in assay [4], the “EC50 (read off the curve)” value was approximately 1 nM. Moreover, the binding result in the assay with human CD40 ECD, in the assay with human 4-1BB (CD137) ECD and with human CD271 ECD was “no binding” in each case. The “Fold Change” value with human OX40-ECD.His D34A came out at 0.991; in the assay with human OX40-ECD.His S59A it was 1; with human OX40-ECD.His N88A it was 0.429; with human OX40-ECD.His P127A, 0.953. Besides, the “IC50 (read off the curve)” value in assay [6] was approximately 1 nM.
